Assay: soluble on expression in E. coli; label from the status in PepcDB or PDB records

Sequence | soluble on expression in E. coli
MGSDKIHHHHHHMASIALNNLTYTYPQASTPILDRVNLTLPRQSFILLTGPSGTGKSTLLKLIAGLLPLTPDDGTITFDGQALTASTANQRAQHVAMMFQNPNQQFAMDTVENELIFALENLQVPRDQIPARLLSALDFVGIRNLQSRLLNHLSGGEKQKVALAIIVAMDSDVILLDEPFASVDPTARAVLLDRLVELRNQHGKTIILADHDLSGYEQLVDQVVQIKDQHLQLIDRTTWSELFSAFTEQPQRSWSAPQRVERPCFQLDHVTLQAGDRQLLVPTTRQLLAQHNTLITGPNGSGKSTLFEALVRLHPYTGEIRYEGTPIDKLKRKRYARHVALLFQDAETQFLNITVAEELAQSKRYAYGDYFTADRIQTALVQLNLSGRDEQVIYTLSEGQKKKLQILLMLIMQSPVLLMDEPLKGLDLHSINALVALLQTTQAATKQTLIIISHQLTGLMPLIDYQLHFENHHLDWVVRS | not soluble
MAHHHHHHMYNPALPNHYRGVVFAAYVRRRQREEAAAAQQQRQPNALASALSASSLAAPSMASVTAPLLGLSAEELHQHRIKESAALGIQRAVMMEKEALEVEHKKRKLEGSDARSRISSRLDKLKALAAKSKAVTGVSASLDAGDAILQAGGPSSPTSSQRTSSSSFDAEAAPSAPLVFQRSSLAAGGYVMAAADPSLPGMLLRTKTRSAVQGKPSSTLLLRFLHDSPVLGWKEAAIAEASTLSSAESSLCAPVLSQVQQLCRRFGFVRSMAAHVYAEDVVTAALARARSQTSAETQVPSAEAVRREQLRVWVRFDSVTEAFKAAESLAKEVSPATPAGRPVFAVAFYPTGLYDSGALELREEDLLSPSA | not soluble
MGHHHHHHSHMASATQSVSRLQSIVAGLKNAPSDQLINIFESCVRNPVENIMKILKGIGETFCQHYTQSTDEQPGSHIDFAVNRLKLAEILYYKILETVMVQETRRLHGMDMSVLLEQDIFHRSLMACCLEIVLFAYSSPRTFPWIIEVLNLQPFYFYKVIEVVIRSEEGLSRDMVKHLNSIEEQILESLAWSHDS | not soluble
VMVFISSSLNSFRSEKRYSRSLTIAEFKCKLELVVGSPASCMELELYGADDKFYSKLDQEDALLGSYPVDDGCSIHVIDHSG | soluble
MTAVKHTTESTFAKLGVRDEIVRALGEEGIKRPFAIQELTLPLALDGEDVIGQARTGMGKTFAFGVPLLQRITSGDGTRPLTGAPRALVVVPTRELCLQVTDDLATAGKYLTAGPDTDDAAAVRRRLSVVSIYGGRPYEPQIEALRAGADVVVGTPGRLLDLCQQGHLQLGGLSVLVLDEADEMLDLGFLPDIERILRQIPADRQSMLFSATMPDPIITLARTFMVRPTHIRAEAPHSSAVHDATEQFVYRAHALDKVELVSRVLQARDRGATMIFTRTKRTAQKVADELTERGFAVGAVHGDLGQLAREKALKAFRTGGIDVLVATDVAARGIDIDDVTHVINYQCPEDEKMYVHRIGRTGRAGRTGVAVTLVDWDELPRWSMIDQALGLGSPDPAETYSNSPHLYAELAIPATAGGTVGPARKSQGRRRDTDCDGQKTAQHARNTPRRRRTRGGKPVTGHPGTNPISSPIVGGDATSEPGSGTASDSGSDVVSGSRSGNGEAARRRRRRRRRPTHAQDGFAARAN | soluble
GMASSFLEEVDRLITLSGITFHASGTGTPELIKIYQDALGNEFPETYKLFLEKYGTLTFNGVSFYGISKRGLSAASIPDVKFATEQARTFGDINKEMIMIKNSGYGSIFSIDTSIIGSEGEPVIVETNLSFKDNTEKKVVANSFGEFLLEEIELSLTDLG | soluble
LPRELRPLMKKPLGILYRGKGRDTIEKFAGELSSPTKLISVGDVTTFHLLEAGIIPDICIVDDRTKRKPVSSDVSVRNRDKVYEEVSVDNPAGIITDELIRTLCEAFASEKLLRIFVRGEEDLATLPVILLAPPGSVVLYGQPDEGVVFVEVTEKKKEEIRALFEKLISK | not soluble
MSLDSRTELKEIAGVAKRLTLLYVEDDIPTRRFLKRRLEEIFGVVAEAANGEEGLKRFLQGGIDLVISDNIMPFMDGIEMIREIRRVDTRLPIILTTAFIDTDYLMEAINLGVTQFVAKPISMDLLHNAIQMAIQRVVLDNLTRKAKEQEIELLRFQDRYHSLQQESARRKERNLIKNDHYLQTIQGKEGEEWVLDALHRSLEILSGDSYSVRGLDEGRALLFIVDGMGKGLSASVTTTLSIAFLNYLIDERIAQGARVELGSLVGDYLRFIQKELLEEEIISAGFYDFDFKRERLSYITFGMPSMLWVNSQGECERIKSSSPPLMKYSLPPLPQEICIQDLEKILLYSDGLNEALLDEETIYGEILEEELLWNRFLSEMNRRFRSRVKDVDDDITAFWVRRVPQNPSASRSYEIKSSLLEVHRLSDTIEEGLESFGIFDLEASTRFMTALTEMLMNAYEHGSLGVERLTKDQLIQEGSYDEYLAKESKPHRRIRVRLRRYEEGEATLLTCEVEDEGRGFDTQTLLQNLRNEPETLTSGRGIRLTKGLVDHLCFKKGGRVSQFTVVAREALFGNEGHHHHHH | not soluble
MGFDLFGKIEDILKELPQDKEASVEDFEEERIKNCVPRIHKELREGFSPLEAGVLPYAISLNKGCYVGQEAIARVYFRGRTPRVLTKFEVIEQVKEEEKILEGNKAIGLITSVSPSGKMALGYILRAKFEKGKEYQTESGKVKAKGVCEDGSTLEHHHHHH | not soluble
MPSDLIPLIELHQVSKTFGKPVAEHSLQGLLQRLHLTRPKPVTHAVDRVDLRIMRGEVVGLVGESGCGKSTLGRMVAGLLPVSSGVASVDGKPLDSLTTQERKALRLKVQMIFQDPSSSLNPRLRVDRIVGEGALLHGLTDRKGADDYVSAQLQRAGLNPQLRQRYPHQFSGGQRQRIGIARALAVQPELLVCDESVAALDVSIQAQILNLFMDLRDELGLTYLFISHDLGVVEHLCDRVVVMYLGRVVETASVDDLFARANHPYTQALLAQIPRFDIRSTRYDAIQGEIPSPLNPPTGCHFHPRCPHAMARCREEVPALREVSPNHQSACHLNDQR | not soluble
AHHHHHHGSIDDLVERMRKGDRRAVARLITLVENDEKKAREIIKRIYPLTGNAYIVGITGPPGSGKSTLVDKLVKEARKEGLIVGVIAVDPTSPFTGGALLGDRIRMQDHATDPGVFIRSMATRGSLGGLAKATNDAIKILDAYGCDIIFVETVGVGQVEVDIVKTADTVVLVTVPGLGDDIQAIKAGLMEIADIFVLNKADREGADATYFELSLTLDLESEKWEKLGWRPPIVETVATLGKGIKELWEQIKRHREFLEKSGKLEEKKRLRVEEEIKTIVSDMIAKKVEVSIKAGNLEDILEKVMKKELDPYSAASLIMEKIIGGGKSV | soluble
MSLEVEVYRDPLSGFKDNKKSAPVKLNDEQQFALNQITAAIDKRKAETFLLEGITGSGKTEVYLHAISKALEQGRNALMLVPEISLTPQMVRQVKSRFGQAVAVLHSALSEGEKYDEWRRIRRGETRVVVGARSAVFAPLDNIGLIVIDEEHESSYKQETDPRYNARDVAIWRSKYHHCPLVLGSATPSLGSRARAQKNVYKLLRLTKRANNKKLPKVNLIDLKHVQFAGGQFDLSVNLVDAIKKRLDNKEQVILMLNRRGFANFMLCRECGFVLKCPNCDVSLNLHKDTNSMQCHYCGHTERVPSRCPNCQSSKIRFLGTGTQKVQEELEELLPGARILRMDVDTTRKKGSYKRILDSFGNHEADILLGTQMIAKGLDFPNVTLVGVINADTGLWLSDYNASEKTFELLTQVAGRAGRANKEGEVLIQTYNPEHYAIQLAQTQNYERFYGYEMNVRHAGNYPPYFFTVLISIAAKKEQNAAREAFRIKRYLSQHLHEEMIILGPTPSAISRVKNQYYYQILVKYKKEPNIKELLHHIQDSAQEAKKYGLNVFIDNEPEKIMEGHHHHHH | not soluble
MAHHHHHHMIVASSLEVRNYGEWVRQVRAERIIVNCPDEMDVKAMCAWMKRDETKEKQAECWKEVKKHMYLLGPIPRHVFDEEAFTERCGAVKFALQSINDVTVKECFPRGGESPWCSEDPSHKPVRVVREIYEGSVILFNAPMCDCLEERTLKRLPSVAE | not soluble
MEHKEVVLLLLLFLKSGQGEPLDDYVNTQGPSLFSVTKKQLGAGSREECAAKCEEDKEFTCRAFQYHSKEQQCVIMAENRKSSIIIRMRDAVLFEK | not soluble
MLFKRYGDPISLLRTYRLCDLMEFIFYVQEVEQEEKIYNQWLHTQMTQSLKEFKDQQKYRPLRKNKAKSTTKEEQQKALDFASQFVKPRKEGEVS | not soluble
MKKTLTSPLVAAIAHTAAPVHAGTLEDVKARGNLLCSSTTGSPGFSMPDDAGKRHGLEVDVCRAIATAVFGDPERHKIVVLNPIQRFTALQSGEVDILFNTTTWTLSREGAGALYAGVTYYDGQGVLVRKGTIASAKELDGGAICTNQGSTTELNLVDFFRANKVSNEVITFATVQEAANAYESGRCDAWSADAGILAALRSKMKAPDDHVILADRLSKEPLGAAVRKGDDAWFSVVRWSIFALQAAEELGLTSKNIAEQAKSTTNPEVLRFVGKEGSLGKVLGLNGDWAYQIVAQVGSYAEIFDRNIGAASPLNLERGINASWKNGGLFYTPPFR | not soluble
MGSDKIHHHHHHMSAPQAMKVLVLCGPESSGKSWLSGVIQAHFGGLVVGEYVRHFIDQQCRDTCYADIPAIARGQLAWEDRAREQAPPLLILDTHLLSNMLWSHALFGDCPTWLEEALLARRYDLHLLLSPQGVDWIADGQRCQPDLSDRQRFFDDSQAWLRRHNQPHQILDGNWPQRQLLALQSVAKLLNSDAPSCPTEC | not soluble
VGFAPELYCGLENCYDVLEVNREEFDKQKLAKAYRALARKHHPDRVKNKEEKLLAEERFRVIATAYETLKDDEAKTNYDYYLDHPDQRFYNYYQYYRLRAAPKVDL | soluble
MLTYETWEENETKGALSVLSWAYKEYKSEIVYACSFGVEGMVLLDLINQVNPSAKVVFLDTNVHFQETYELIQKVRERFPSLNIIEKQPKLTLDEQDKLHGDKLWESNPNLCCKIRKILPLEESLANEKAWISGLRREQSETRKHTKFINQDHRFQSIKVCPLIHWTWKEVWRYVYKHSLPYNSLHDIGYPSIGCEKCTLPVGEGGDSRDGRWAGKVKTECGLHYQ | not soluble
IIHREYPRHHVLHRFTPASKPNGKKILITHGWMSRAAYMVRLIRLLHKEGYEVYAIDFPAHGEAKGIQLPWTDAIAIIKETINQFGPFYGLVGHSFGGSMILNTLNLAGQLPEWQLNHKPERAILIASPTQMRTPVNKIARRFKLSGQAYLQLRQLIRQQASVDPERIRLSHFISQAPDTYFLCIHGELDATINPKESINFCKYYKNARLSLLPDADHVSVLMDERVEQIALDFLNR | not soluble
MEKKITGYTTVDISQWHRKEHFEAFQSVAQCTYNQTVQLDITAFLKTVKKNKHKFYPAFIHILARLMNAHPEFRMAMKDGELVIWDSVHPCYTVFHEQTETFSSLWSEYHDDFRQFLHIYSQDVACYGENLAYFPKGFIENMFFVSANPWVSFTSFDLNVANMDNFFAPVFTMGKYYTQGDKVLMPLAIQVHHAVCDGFHVGRMLNELQQYCDEWQGGA | soluble
MNMQKLRIELGEETNDELYDLLLLADPSKDIVDEYLERGECYTAWAGDELAGVYVLLKTRPQTVEIVNIAVKESLQKKGFGKQLVLDAIEKAKKLGADTIEIGTGNSSIHQLSLYQKCGFRIQAIDHDFFLRHYDEDIFENGIQCRDMVRLYLDLLEHHHHHH | soluble
MINLTSIASSLARVALSDSTKPTIDRALNVVSHIAGKVALQVNSSLLEQKGRLNERQQKGLAVILDALRGKEPVTNVETHEGGGRFNLARAAFDVASVVWERDKSMHNVMSFLGVSDSQGKMLFSLGKKLADAMAKPEPGYGKHNSEANYAFFSSNLKLNKLMSDIADQLINEIRQSNTDRVRRPTPGPSWRPESAQQQARPQTPPRTRPQANSTPPPPKAKPNAGAKRPSTQRPHNTPAADASSKVGDSGPAKPPVKPLYEHLGLSDMTADLSAVKTAYKKAALKNHPDKNAGNVAEATERFKVISNAFKILSDPELRKKYDNGLINEKGDEVQV | not soluble
